“And” between values parts separate entries of the source, which are not always exact repeats. Identical values can stand only once.
What was measured:
[1] = Pharmacokinetics after single subcutaneous injection (double-antibody sandwich ELISA)
Procedure: (1) 18 SD rats (half male and half female) were purchased and fed for one week.
(2) Rats were divided into 3 groups, half male and half female, and weight of rats were recorded respectively.
The blood was centrifuged at 12000 rpm/min to take 200 μL of supernatant, then the supernatant was diluted with PBS solution according to a ratio of 1:3, and finally placed in an EP tube and stored in a −80° C. refrigerator.
(4) Biological samples were measured by double-antibody sandwich ELISA.
(1) Coating, HM-3 monoclonal antibody was diluted with a coating buffer (CBS) in certain concentration, added to an ELISA plate and coated overnight.
(2) Plate washing, the coating buffer was discarded, and the plate was washed by PBST for 3 times, and then dried by patting.
(3) Sealing, a blocking buffer was added for sealing at 37.5° C., the plate washing process was repeated and the plate was dried by patting.
(4) Addition of samples to be measured, the samples to be measured were added to the ELISA plate with multiple wells, and then incubated at 37.5° C.; the plate washing process was repeated and the plate was dried by patting.
(5) Addition of a secondary antibody, the secondary antibody diluted proportionally was added for incubation at 37.5° C. The plate washing process was repeated and the plate was dried by patting.
(6) Addition of the enzyme-labeled secondary antibody for reaction, the HRP-labeled secondary antibody which was diluted by 5% skim milk powder solution according to certain proportion was added for incubation at 37.5° C. The plate washing process was repeated and the plate was dried by patting.
(7) Addition of a substrate, a TMB substrate in certain volume L was added for reaction in the dark.
(8) Termination of the reaction, a certain amount of stop buffer was added to terminate the reaction.
(9) Detection, read OD450 nm with a microplate reader.

human macrophage U937 = test: TNF-α production by LPS-induced human macrophage U937 (ELISA); assay type: cell-based
Procedure: Experimental method: Human macrophage U937 was cultured in RPMI-1640 medium containing 10% fetal bovine serum and double antibodies in a constant temperature incubator at 37° C. under the condition of 5% CO2, and the medium was replaced every 2 days. U937 cells in the logarithmic phase were collected, resuspended and adjusted to the concentration of 5×10^5/mL. 100 μL of cells was added to each well of a 96-well plate overnight and induced with LPS (1 μg/mL) in the following day, where n=3. At the same time, the cells were treated with agents, and respectively divided into a positive control group adalimumab, an HM-3 polypeptide group, an mPEG-SC-HM-3 polypeptide group, an HM-3 fusion protein (TSL-1, TSL-2, TSL-3, TSL-4) group, and the specific dosing scheme was shown in Table 5.
48 h after the agents worked, culture medium was collected and centrifuged, and supernatant was taken to measure the content of TNF-α therein by ELISA. Test results were expressed as mean±SD, and statistical T test was performed. *P<0.05 indicates significant difference, **P<0.01 indicates extremely significant difference. Based upon the results, the efficacy of the HM-3 fusion protein against rheumatoid arthritis was screened.

mIgG4-Fc-(GGGGS)3-HM-3 [TSL-4]
Plasma concentration ([1]; 12.5 mg/kg sc, 20.00 h, Mean): 5407 ng/mL | Plasma concentration ([1]; 12.5 mg/kg sc, 20.00 h, single rats No. 1-5): 1900 ng/mL and 3086 ng/mL and 5605 ng/mL and 3962 ng/mL and 12480 ng/mL | Plasma concentration ([1]; 12.5 mg/kg sc, 24.00 h, Mean): 4248 ng/mL | Plasma concentration ([1]; 12.5 mg/kg sc, 24.00 h, single rats No. 1-5): 1822 ng/mL and 2513 ng/mL and 2747 ng/mL and 3966 ng/mL and 10192 ng/mL | Plasma concentration ([1]; 12.5 mg/kg sc, 28.00 h, Mean): 1907 ng/mL | Plasma concentration ([1]; 12.5 mg/kg sc, 28.00 h, single rats No. 1-5): 336 ng/mL and 1653 ng/mL and 766 ng/mL and 2703 ng/mL and 4077 ng/mL | Plasma concentration ([1]; 12.5 mg/kg sc, 41.00 h, Mean): 746 ng/mL | Plasma concentration ([1]; 12.5 mg/kg sc, 41.00 h, single rats No. 1-5): 241 ng/mL and 700 ng/mL and 417 ng/mL and 1185 ng/mL and 1189 ng/mL | Plasma concentration ([1]; 12.5 mg/kg sc, 53.00 h, Mean): 402 ng/mL | Plasma concentration ([1]; 12.5 mg/kg sc, 53.00 h, single rats No. 1-5): 131 ng/mL and 542 ng/mL and 247 ng/mL and 734 ng/mL and 357 ng/mL | Plasma concentration ([1]; 12.5 mg/kg sc, 65.00 h, Mean): 330 ng/mL | Plasma concentration ([1]; 12.5 mg/kg sc, 65.00 h, single rats No. 1-5): 127 ng/mL and 396 ng/mL and 181 ng/mL and 648 ng/mL and 299 ng/mL | Plasma concentration ([1]; 12.5 mg/kg sc, 77.00 h, Mean): 261 ng/mL | Plasma concentration ([1]; 12.5 mg/kg sc, 77.00 h, single rats No. 1-5): 64 ng/mL and 285 ng/mL and 160 ng/mL and 505 ng/mL and 290 ng/mL | AUC 0-77 ([1]; 12.5 mg/kg single sc): 116.1901 µg·h/mL | AUC 0-∞ ([1]; 12.5 mg/kg single sc): 128.4302 µg·h/mL | MRT 0-77 ([1]; 12.5 mg/kg single sc): 18.248 h | MRT 0-∞ ([1]; 12.5 mg/kg single sc): 20.882 h | Tmax ([1]; 12.5 mg/kg single sc): 7 ± 0.707 h | ka ([1]; 12.5 mg/kg single sc): 0.247 | t½ka (absorption half-life) ([1]; 12.5 mg/kg single sc): 3.249 h | t½ke (elimination half-life) ([1]; 12.5 mg/kg single sc): 32.321 ± 4.935 h | α, ke ([1]; 12.5 mg/kg single sc): 0.149 | Plasma concentration ([1]; 37.5 mg/kg sc, 0.50 h, Mean): 1402 ng/mL | Plasma concentration ([1]; 37.5 mg/kg sc, 0.50 h, single rats No. 1-5): 1180 ng/mL and 1202 ng/mL and 1816 ng/mL and 1534 ng/mL and 1277 ng/mL | Plasma concentration ([1]; 37.5 mg/kg sc, 1.00 h, Mean): 2169 ng/mL | Plasma concentration ([1]; 37.5 mg/kg sc, 1.00 h, single rats No. 1-5): 1974 ng/mL and 1514 ng/mL and 2370 ng/mL and 1151 ng/mL and 3838 ng/mL | Plasma concentration ([1]; 37.5 mg/kg sc, 3.00 h, Mean): 13349 ng/mL | Plasma concentration ([1]; 37.5 mg/kg sc, 3.00 h, single rats No. 1-5): 23044 ng/mL and 13341 ng/mL and 9819 ng/mL and 5861 ng/mL and 14678 ng/mL | Plasma concentration ([1]; 37.5 mg/kg sc, 5.00 h, Mean): 19696 ng/mL | Plasma concentration ([1]; 37.5 mg/kg sc, 5.00 h, single rats No. 1-5): 36313 ng/mL and 18726 ng/mL and 10891 ng/mL and 12949 ng/mL and 19600 ng/mL | Plasma concentration ([1]; 37.5 mg/kg sc, 6.00 h, Mean): 27920 ng/mL | Plasma concentration ([1]; 37.5 mg/kg sc, 6.00 h, single rats No. 1-5): 44277 ng/mL and 20173 ng/mL and 20450 ng/mL and 16158 ng/mL and 38541 ng/mL | Plasma concentration ([1]; 37.5 mg/kg sc, 7.00 h, Mean): 35272 ng/mL | Plasma concentration ([1]; 37.5 mg/kg sc, 7.00 h, single rats No. 1-5): 64960 ng/mL and 21479 ng/mL and 38009 ng/mL and 22359 ng/mL and 29552 ng/mL | Plasma concentration ([1]; 37.5 mg/kg sc, 8.00 h, Mean): 30478 ng/mL | Plasma concentration ([1]; 37.5 mg/kg sc, 8.00 h, single rats No. 1-5): 62784 ng/mL and 25446 ng/mL and 31080 ng/mL and 12944 ng/mL and 20137 ng/mL | Plasma concentration ([1]; 37.5 mg/kg sc, 10.00 h, Mean): 24736 ng/mL | Plasma concentration ([1]; 37.5 mg/kg sc, 10.00 h, single rats No. 1-5): 44656 ng/mL and 21055 ng/mL and 21153 ng/mL and 10006 ng/mL and 26810 ng/mL | Plasma concentration ([1]; 37.5 mg/kg sc, 12.00 h, Mean): 19172 ng/mL | Plasma concentration ([1]; 37.5 mg/kg sc, 12.00 h, single rats No. 1-5): 36576 ng/mL and 17149 ng/mL and 17361 ng/mL and 8919 ng/mL and 15856 ng/mL | Plasma concentration ([1]; 37.5 mg/kg sc, 16.00 h, Mean): 11084 ng/mL | Plasma concentration ([1]; 37.5 mg/kg sc, 16.00 h, single rats No. 1-5): 13903 ng/mL and 7767 ng/mL and 12942 ng/mL and 6885 ng/mL and 13925 ng/mL | Plasma concentration ([1]; 37.5 mg/kg sc, 20.00 h, Mean): 7721 ng/mL | Plasma concentration ([1]; 37.5 mg/kg sc, 20.00 h, single rats No. 1-5): 9514 ng/mL and 3313 ng/mL and 9915 ng/mL and 4605 ng/mL and 11259 ng/mL | Plasma concentration ([1]; 37.5 mg/kg sc, 24.00 h, Mean): 4523 ng/mL | Plasma concentration ([1]; 37.5 mg/kg sc, 24.00 h, single rats No. 1-5): 4801 ng/mL and 3205 ng/mL and 5617 ng/mL and 3076 ng/mL and 5918 ng/mL | Plasma concentration ([1]; 37.5 mg/kg sc, 28.00 h, Mean): 2285 ng/mL | Plasma concentration ([1]; 37.5 mg/kg sc, 28.00 h, single rats No. 1-5): 1952 ng/mL and 2730 ng/mL and 3953 ng/mL and 1833 ng/mL and 959 ng/mL | Plasma concentration ([1]; 37.5 mg/kg sc, 41.00 h, Mean): 920 ng/mL | Plasma concentration ([1]; 37.5 mg/kg sc, 41.00 h, single rats No. 1-5): 780 ng/mL and 912 ng/mL and 1824 ng/mL and 779 ng/mL and 303 ng/mL | Plasma concentration ([1]; 37.5 mg/kg sc, 53.00 h, Mean): 407 ng/mL | Plasma concentration ([1]; 37.5 mg/kg sc, 53.00 h, single rats No. 1-5): 431 ng/mL and 466 ng/mL and 510 ng/mL and 391 ng/mL and 237 ng/mL | Plasma concentration ([1]; 37.5 mg/kg sc, 65.00 h, Mean): 312 ng/mL | Plasma concentration ([1]; 37.5 mg/kg sc, 65.00 h, single rats No. 1-5): 357 ng/mL and 301 ng/mL and 370 ng/mL and 291 ng/mL and 243 ng/mL | Plasma concentration ([1]; 37.5 mg/kg sc, 77.00 h, Mean): 215 ng/mL | Plasma concentration ([1]; 37.5 mg/kg sc, 77.00 h, single rats No. 1-5): 269 ng/mL and 253 ng/mL and 169 ng/mL and 244 ng/mL and 138 ng/mL | AUC 0-77 ([1]; 37.5 mg/kg single sc): 166.338 µg·h/mL | AUC 0-∞ ([1]; 37.5 mg/kg single sc): 176.11 ± 39.59645 µg·h/mL | MRT 0-77 ([1]; 37.5 mg/kg single sc): 13.988 h | MRT 0-∞ ([1]; 37.5 mg/kg single sc): 15.755 h | Tmax ([1]; 37.5 mg/kg single sc): 7 ± 0.707 h | ka ([1]; 37.5 mg/kg single sc): 0.116 | t½ka (absorption half-life) ([1]; 37.5 mg/kg single sc): 3.079 h | t½ke (elimination half-life) ([1]; 37.5 mg/kg single sc): 34.356 ± 1.578 h and 34.355 h | α, ke ([1]; 37.5 mg/kg single sc): 0.197 | pharmacokinetic characteristics ([1]; 4.17, 12.5, 37.5 mg/kg sc): consistent with linear pharmacokinetic characteristics | inhibitory effect on TNF-α compared with HM-3 and mPEG-SC-HM-3 (human macrophage U937): much better than that of polypeptide HM-3 and mPEG-SC-HM-3 | TNF-α content in cell supernatant (human macrophage U937; 9 μM, LPS 1 μg/mL, 48 h, negative group 77.6±19.6): 22.2 ± 8.9 pg/mL
